For 3 molecules, PLA puncta fluorescence intensity per cell, % of rest, PMA 5 min, PLA puncta fluorescence intensity per cell, % of rest, PMA 15 min and PLA puncta fluorescence intensity per cell, % of rest, after 1-min stimulation results are on record in doi:10.1101/779520.

Where two headings read alike, the source gives them in different places.

The target of assay [1] is otoferlin (mouse (endogenous in inner hair cells)). The assay can be described thus: proximity ligation.
The target is the same in assay [2]. The assay can be described thus: proximity ligation. The source holds these as a separate data set.

Chain of otoferlin (mouse (endogenous in inner hair cells)) (Q9ESF1 whole entry): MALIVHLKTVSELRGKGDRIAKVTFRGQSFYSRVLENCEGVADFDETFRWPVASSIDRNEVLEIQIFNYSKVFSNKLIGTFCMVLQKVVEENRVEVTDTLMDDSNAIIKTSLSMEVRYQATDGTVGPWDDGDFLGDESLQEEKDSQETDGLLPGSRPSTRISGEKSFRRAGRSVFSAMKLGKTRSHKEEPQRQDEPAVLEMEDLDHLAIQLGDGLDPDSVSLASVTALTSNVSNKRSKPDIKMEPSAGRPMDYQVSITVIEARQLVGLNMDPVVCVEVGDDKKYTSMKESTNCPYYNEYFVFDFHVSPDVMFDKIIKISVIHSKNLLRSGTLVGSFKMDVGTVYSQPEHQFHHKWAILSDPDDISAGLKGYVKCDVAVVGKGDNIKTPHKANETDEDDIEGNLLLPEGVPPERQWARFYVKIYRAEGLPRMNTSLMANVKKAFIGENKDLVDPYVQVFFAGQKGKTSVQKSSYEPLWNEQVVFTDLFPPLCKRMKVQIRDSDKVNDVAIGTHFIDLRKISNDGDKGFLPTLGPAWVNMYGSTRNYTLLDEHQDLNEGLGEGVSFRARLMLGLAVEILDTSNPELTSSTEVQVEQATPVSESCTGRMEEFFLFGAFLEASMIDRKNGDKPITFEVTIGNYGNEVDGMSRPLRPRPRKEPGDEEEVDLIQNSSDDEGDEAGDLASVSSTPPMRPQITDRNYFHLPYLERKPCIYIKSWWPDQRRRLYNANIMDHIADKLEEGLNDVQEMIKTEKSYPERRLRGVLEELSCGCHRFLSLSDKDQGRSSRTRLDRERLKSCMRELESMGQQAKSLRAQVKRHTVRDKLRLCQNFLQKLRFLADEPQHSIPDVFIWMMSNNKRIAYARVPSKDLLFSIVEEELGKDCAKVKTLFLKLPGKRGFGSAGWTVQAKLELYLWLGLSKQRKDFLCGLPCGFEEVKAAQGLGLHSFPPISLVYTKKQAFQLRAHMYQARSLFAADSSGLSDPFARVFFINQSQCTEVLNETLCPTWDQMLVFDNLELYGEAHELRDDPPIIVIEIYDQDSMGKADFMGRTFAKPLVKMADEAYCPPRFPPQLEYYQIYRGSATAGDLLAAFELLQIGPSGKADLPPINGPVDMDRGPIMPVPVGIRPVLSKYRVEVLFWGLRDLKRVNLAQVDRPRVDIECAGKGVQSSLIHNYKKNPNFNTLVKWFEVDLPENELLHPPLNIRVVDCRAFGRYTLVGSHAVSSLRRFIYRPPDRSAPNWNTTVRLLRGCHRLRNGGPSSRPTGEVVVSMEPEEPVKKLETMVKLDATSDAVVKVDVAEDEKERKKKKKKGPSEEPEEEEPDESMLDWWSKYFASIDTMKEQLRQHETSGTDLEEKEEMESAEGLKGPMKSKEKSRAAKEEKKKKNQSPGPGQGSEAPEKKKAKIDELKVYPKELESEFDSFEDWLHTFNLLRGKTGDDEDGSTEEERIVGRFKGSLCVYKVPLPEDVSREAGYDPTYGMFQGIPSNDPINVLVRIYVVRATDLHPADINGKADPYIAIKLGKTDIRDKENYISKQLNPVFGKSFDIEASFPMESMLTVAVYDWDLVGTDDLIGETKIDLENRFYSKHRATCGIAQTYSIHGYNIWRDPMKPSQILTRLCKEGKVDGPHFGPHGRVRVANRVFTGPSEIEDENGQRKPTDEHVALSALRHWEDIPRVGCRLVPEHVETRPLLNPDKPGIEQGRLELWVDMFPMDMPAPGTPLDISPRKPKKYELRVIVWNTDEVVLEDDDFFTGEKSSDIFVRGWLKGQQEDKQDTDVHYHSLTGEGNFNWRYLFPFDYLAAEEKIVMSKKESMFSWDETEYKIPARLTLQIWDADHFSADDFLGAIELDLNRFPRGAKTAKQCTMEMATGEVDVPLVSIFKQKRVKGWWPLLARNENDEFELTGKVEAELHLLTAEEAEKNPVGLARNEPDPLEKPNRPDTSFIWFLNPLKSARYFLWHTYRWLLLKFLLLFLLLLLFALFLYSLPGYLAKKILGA

In assay [1], “myosin VI (from UniProt Q64331 1-1262) (natural protein)” returned a PLA puncta fluorescence intensity per cell, % of rest, PMA 5 min of 133%; a PLA puncta fluorescence intensity per cell, % of rest, PMA 15 min of 149%; a PLA puncta fluorescence intensity per cell, % of rest, after 1-min stimulation of 173%.

On to “protein kinase C α (from UniProt P20444 1-672) (enzyme)”, for which the PLA puncta fluorescence intensity per cell, % of rest, after 1-min stimulation in assay [1] stood at 442%.

B1: calbindin-D28k (natural protein)
chain: MAESHLQSSLITASQFFEIWLHFDADGSGYLEGKELQNLIQELLQARKKAGLELSPEMKSFVDQYGQRDDGKIGIVELAHVLPTEENFLLLFRCQQLKSCEEFMKTWRKYDTDHSGFIETEELKNFLKDLLEKANKTVDDTKLAEYTDLMLKLFDSNNDGKLELTEMARLLPVQENFLLKFQGIKMCGKEFNKAFELYDQDGNGYIDENELDALLKDLCEKNKQELDINNITTYKKNIMALSDGGKLYRTDLALILSAGDN
In assay [2], B1 registered a PLA puncta fluorescence intensity per cell, % of rest, PMA 5 min of 175%; a PLA puncta fluorescence intensity per cell, % of rest, PMA 15 min of 161%; a PLA puncta fluorescence intensity per cell, % of rest, after 1-min stimulation of 560%.
